B1: His6-EGFP-KRIT1 (WT) FERM domain (417–736) (domain or fragment, human, UniProt O00522 417-736, looked up)
chain: KPYEKVRIYRMDGSYRSVELKHGNNTTVQQIMEGMRLSQETQQYFTIWICSENLSLQLKPYHKPLQHVRDWPEILAELTNLDPQRETPQLFLRRDVRLPLEVEKQIEDPLAILILFDEARYNLLKGFYTAPDAKLITLASLLLQIVYGNYESKKHKQGFLNEENLKSIVPVTKLKSKAPHWTNRILHEYKNLSTSEGVSKEMHHLQRMFLQNCWEIPTYGAAFFTGQIFTKASPSNHKVIPVYVGVNIKGLHLLNMETKALLISLKYGCFMWQLGDTDTCFQIHSMENKMSFIVHTKQAGLVVKLLMKLNGQLMPTERNS
B2: biotinylated HEG1 cytoplasmic tail (a.a. 1274–1381) (domain or fragment, UniProt Q9ULI3 1274-1381, looked up)
chain: RKNKNDISKLIFKSGDFQMSPYAEYPKNPRSQEWGREAIEMHENGSTKNLLQMTDVYYSPTSVRNPELERNGLYPAYTGLPGSRHSCIFPGQYNPSFISDESRRRDYF
modifications: biotin on the in vivo biotinylation peptide tag

Key:
[1] = molecular target: B2; assay: flow cytometry on beads
[2] = molecular target: B1; assay: flow cytometry on beads

| Binder | EC50 [1] [nM] | binding result [2] |
| --- | --- | --- |
| B1 | 32.4 |  |
| B2 |  | binds |
